“And” between values parts separate entries of the source, which are not always exact repeats. Identical values can stand only once.
Biological target: T1, Bak (endogenous, mitochondria of A549 cells) (human (endogenous in A549)), Q16611
T1 chain: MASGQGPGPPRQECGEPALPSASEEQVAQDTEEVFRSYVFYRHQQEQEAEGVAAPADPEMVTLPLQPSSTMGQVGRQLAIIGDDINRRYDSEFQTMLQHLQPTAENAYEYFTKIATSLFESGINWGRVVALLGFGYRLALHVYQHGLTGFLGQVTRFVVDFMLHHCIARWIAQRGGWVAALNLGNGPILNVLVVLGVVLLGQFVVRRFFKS
Experiment: cross-linking; A549 cells treated with BKA-073 (1 uM) for 24 h; mitochondrial fraction; 10 mM BMH in PBS pH 7.2 with 5 mM EDTA, 1 h at room temperature, quenched with DTT; SDS-PAGE and Western blot with a Bak antibody
Settings: remark: other sources report otherwise

stoichiometry N: 2 and 3
B1: Bak (endogenous, mitochondria of A549 cells), Q16611 1-211 (natural protein)
chain: T1 chain
